Test results reported in US11324803B2, “Methods and compositions for treatment of Gaucher Disease via modulation of C5a receptor” (Children's Hospital Medical Center, priority 2015, dated 2022).

Tests used:
C5aR1 [1] = target: T1, C5aR1 (Mus musculus, UniProt P30993); test: C5aR antagonist A8^Δ71-73 (C5aRA) i.p. treatment of Gaucher disease-prone 9V/null mice; assay type: in vivo; conditions: for pro-inflammatory cytokine (and chemokine) production: DCs and T cells of C5aRA-treated 9V/null mice
T1 construct: endogenous in cells; host or cells: WT and 9V/null mice (mixed FVB/C57BL 6J/129SvEvBrd background), in vivo
T1 sequence (P30993 1-351): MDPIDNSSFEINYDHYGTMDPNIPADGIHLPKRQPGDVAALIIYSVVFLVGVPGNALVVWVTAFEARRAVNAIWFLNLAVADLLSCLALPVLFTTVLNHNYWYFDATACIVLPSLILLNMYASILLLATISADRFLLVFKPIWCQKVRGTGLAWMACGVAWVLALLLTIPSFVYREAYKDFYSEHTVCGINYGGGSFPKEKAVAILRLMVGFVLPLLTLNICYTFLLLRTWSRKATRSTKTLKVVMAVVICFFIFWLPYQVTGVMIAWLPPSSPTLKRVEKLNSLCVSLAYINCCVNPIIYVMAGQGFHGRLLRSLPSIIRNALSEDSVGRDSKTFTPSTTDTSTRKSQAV
From the text: Sera from human patients with Gaucher disease (n=10) and healthy volunteers (n=15) were from the freezer and de-identified. Human patients with Gaucher disease were diagnosed at Cincinnati Children's Hospital Medical Center (CCHMC). […] The study was approved by the ethics committee at CCHMC. In vivo C5aR1 deficiency or blockade in 9V/null mice and in a CBE-induced mouse model of Gaucher disease. To assess the impact of genetic or pharmacological targeting of C5aR1 on the inflammatory response in Gaucher disease, WT (n=10) and C5aR1^−/− mice (n=10) were treated with conduritol B epoxide (CBE), which is an irreversible inhibitor of acid β-glucosidase^24. More specifically, both mouse strains were injected intraperitoneally (i.p.) with 100 mg CBE/kg body weight or vehicle (PBS)/day for up to 60 days, which was the termination point of these experiments. After 60 days of the indicated treatment with CBE, immune cells (MΦs, DCs, and T cells) were purified from lung of these mouse strains and used for measurement of GC, costimulatory molecules, and several of the pro-inflammatory cytokines. In additional experiments, WT (n=15) or 9V/null mice (n=15) were injected with 100 μl of the C5aR antagonist A8^Δ71-73 (i.p. 0.5 mg/kg) or vehicle (100 μl, PBS) on five consecutive days. Five days after the final C5aRA treatment, liver, spleen and lung were separated and measured for GC accumulation. Further, DCs and CD4^+ T cells were purified from the lung of the indicated mouse strains and measured for costimulatory molecule expression and the production of pro-inflammatory cytokines. Preparation of tissue cells. Liver, spleen, lung and BM were harvested aseptically. Single cell suspensions from liver and lung were obtained from minced pieces that were treated with Liberase Cl (0.5 mg/mL) and DNase (0.5 mg/mL) in RPMI (45 min, 37° C.). Single cell suspensions from spleen were obtained by grinding and then filtration through a 70-micron cell strainer. […] For BM cells, femurs, tibias and humeri were flushed with sterile phosphate buffered saline (PBS), followed by RBC lysis (155 mM NH4Cl, 10 mM NaHCO3, 0.1 mM EDTA), passage through a strainer. Cells were then pelleted by centrifugation at 350×g. Viable cells were counted using a Neubauer chamber and trypan blue exclusion. DCs, MΦs, and CD4^+ T lymphocytes were purified from single cell suspensions of liver, spleen, and lung using CD11c, CD11b, and CD4 (L3T4) microbeads according to the manufacturer's protocol. The purity of the cells was ˜90%-95%.
Tissue cells were suspended in PBS containing 1% BSA. After incubation (15 min, 4° C.) with Fc©R-blocking antibody 2.4G2, cells were stained (45 min, 4° C.) with the following antibodies to identify APCs and T cell: CD4 for T cells; CD11b and F4/80 for Ms; and CD11b and CD11c for DCs. Cells were also stained with the respective isotype antibodies as controls. MΦs were first identified by their typical FSC/SSC pattern, F4/80 and CD11 expression. DCs were identified as CD11c^+CD11b^+ cells. Further, CD40, CD80 CD86 and C5aR1 expression was determined in tissue DCs. T cells were first characterized by their FSC/SSC pattern and CD3 staining. CD3^+T cells were further stained for CD4, CD40L and CD69 expression. A total of […] were acquired for each cell type isolated from the different organs. Specific surface expression was assessed relative to the expression of the corresponding isotype control antibody. Fortessa-I, Fortessa-II, and LSRII flow cytometers were used to characterize the cells. FCS express (version 4; DeNovo Software) was used to analyze the data.
Lipids were extracted from tissues (5 mg; liver, spleen, and lung), purified immune cells, (e.g., MΦ, DCs, and CD4^+T) and GC-specific IgG2a by chloroform and methanol^2, 25, 26. […]

C5aR1 [2] = target: T2, C5aR1 (Homo sapiens, UniProt P21730); conditions: cited from earlier work
T2 sequence (P21730 1-350): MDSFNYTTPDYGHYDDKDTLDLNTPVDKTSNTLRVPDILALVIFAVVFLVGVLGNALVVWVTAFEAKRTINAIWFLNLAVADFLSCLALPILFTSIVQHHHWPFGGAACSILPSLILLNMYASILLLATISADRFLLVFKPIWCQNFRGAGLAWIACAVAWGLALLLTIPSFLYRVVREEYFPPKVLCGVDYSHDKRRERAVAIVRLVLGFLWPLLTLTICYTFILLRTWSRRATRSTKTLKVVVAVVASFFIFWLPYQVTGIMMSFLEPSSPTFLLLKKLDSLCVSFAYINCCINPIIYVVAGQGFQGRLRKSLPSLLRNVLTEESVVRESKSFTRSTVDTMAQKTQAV

[3] = C5aRA-treated 9V/null mice, i.p. 0.5 mg/kg on five consecutive days, CD68+ immunohistochemistry
[4] = C5aRA-treated vs vehicle-injected 9V/null mice, ESI-LC-MS/MS
[5] = DC/CD4+ T cell co-culture 48 h from C5aRA-treated mice, ELISA
[6] = in response to C5aRA treatment, flow cytometry

B1: Thr Leu Gln Lys Lys Ile Glu Glu Ile Ala Ala Lys Tyr Lys His Ser Val Val Lys Lys Cys Cys Tyr Asp Gly Ala Ala Val Asn Asn Asp Glu Thr Cys Glu Gln Arg Ala Ala Arg Ile Ser Leu Gly Pro Arg Cys Ile Lys Ala … (protein)
chain: TLQKKIEEIAAKYKHSVVKKCCYDGAAVNNDETCEQRAARISLGPRCIKAFTECCVVASQLRANISFKRS
modifications: mutant C5a-(1-66, Cys27A1a) -A8B-Del. 71-73 of human C5a
notes: positions 27 and 68-71 of human C5a mutated and positions 72-74 deleted
C5aR1 [1]; C5aRA-treated 9V/null mice
  co-stimulatory molecule expression in DCs and CD4+ T cells: marked reduction
C5aR1 [1]; [3]
  MΦ infiltration of the liver: substantially reduced
  MΦ infiltration of the lung: substantially reduced
  MΦ infiltration of the spleen: substantially reduced
C5aR1 [1]; C5aRA-treated 9V/null mice, listed as C5aR antagonist A8^Δ71-73
  co-stimulatory molecule expression in DCs and CD4+ T cells: decreased levels
C5aR1 [1]; C5aRA-treated 9V/null mice, liver and spleen (FIG. 12)
  GCs: marked reduction
C5aR1 [1]; [4]
  GC storage in liver: significantly decreased
  GC storage in lung: significantly decreased
  GC storage in spleen: significantly decreased
C5aR1 [1]; [5]
  IFN-γ production: markedly decreased
  IL-1 production: markedly decreased
  IL-6 production: markedly decreased
  IL-17 production: markedly decreased
  TNF-α production: markedly decreased
C5aR1 [1]
  pro-inflammatory cytokine (and chemokine) production: marked reduction
C5aR1 [1]; listed as C5aR antagonist A8^Δ71-73
  pro-inflammatory cytokine (and chemokine) production: less
C5aR1 [1]; MΦs of treated 9V/null mice
  GC accumulation in MΦs: marked reduction
C5aR1 [1]; [6]
  CD40L expression in CD4+ T cells: significantly reduced
  CD40 expression in pulmonary DCs: significantly reduced
  CD69 expression in CD4+ T cells: significantly reduced
  CD80 expression in pulmonary DCs: significantly reduced
  CD86 expression in pulmonary DCs: significantly reduced
C5aR1 [1]; mouse model of Gaucher disease, i.p.
  MΦs, DC and T cells mediated immune inflammation: significantly reduces
C5aR1 [1]; treated 9V/null mice
  loss of CD41+ platelets: decreased loss
  loss of Ter119+ RBCs: decreased loss
C5aR1 [2]
  affinity to bind human C5aR1: high affinity
